What was measured:
[1] = target: Recombinant, his tagged full length human frataxin protein (Abcam ab95502) (human) (UniProt Q16595); assay: Simoa sandwich 3-step; capture Ab-5; frataxin 100 pg/mL
[2] = target: Recombinant, his tagged full length human frataxin protein (Abcam ab95502) (human) (UniProt Q16595); assay: Simoa sandwich 3-step; capture Ab-2; frataxin 10000 pg/mL
[3] = target: Recombinant, his tagged full length human frataxin protein (Abcam ab95502) (human) (UniProt Q16595); assay: Simoa sandwich 3-step; capture Ab-5; frataxin 10000 pg/mL
[4] = target: Recombinant, his tagged full length human frataxin protein (Abcam ab95502) (human) (UniProt Q16595); assay: Simoa sandwich 3-step; capture Ab-1; frataxin 10000 pg/mL
[5] = target: Recombinant, his tagged full length human frataxin protein (Abcam ab95502) (human) (UniProt Q16595); assay: Simoa sandwich 3-step; capture Ab-3
[6] = target: Recombinant, his tagged full length human frataxin protein (Abcam ab95502) (human) (UniProt Q16595); assay: Simoa sandwich 3-step; capture Ab-2
[7] = target: Recombinant, his tagged full length human frataxin protein (Abcam ab95502) (human) (UniProt Q16595); assay: Simoa sandwich 3-step; capture Ab-5; frataxin 1000 pg/mL
[8] = target: Recombinant, his tagged full length human frataxin protein (Abcam ab95502) (human) (UniProt Q16595); assay: Simoa sandwich 3-step; capture Ab-5
[9] = target: Recombinant, his tagged full length human frataxin protein (Abcam ab95502) (human) (UniProt Q16595); assay: Simoa sandwich 3-step; capture Ab-4; frataxin 100 pg/mL
[10] = target: Recombinant, his tagged full length human frataxin protein (Abcam ab95502) (human) (UniProt Q16595); assay: Simoa sandwich 3-step; capture Ab-3; frataxin 100 pg/mL
[11] = target: Recombinant, his tagged full length human frataxin protein (Abcam ab95502) (human) (UniProt Q16595); assay: Simoa sandwich 3-step; capture Ab-2; frataxin 100 pg/mL
[12] = target: Recombinant, his tagged full length human frataxin protein (Abcam ab95502) (human) (UniProt Q16595); assay: Simoa sandwich 3-step; capture Ab-3; frataxin 1000 pg/mL
[13] = target: Recombinant, his tagged full length human frataxin protein (Abcam ab95502) (human) (UniProt Q16595); assay: Simoa sandwich 3-step; capture Ab-4; frataxin 1000 pg/mL
[14] = target: Recombinant, his tagged full length human frataxin protein (Abcam ab95502) (human) (UniProt Q16595); assay: Simoa sandwich 3-step; capture Ab-2; frataxin 1000 pg/mL
[15] = target: Recombinant, his tagged full length human frataxin protein (Abcam ab95502) (human) (UniProt Q16595); assay: Simoa sandwich 3-step; capture Ab-1; frataxin 1000 pg/mL
[16] = target: Recombinant, his tagged full length human frataxin protein (Abcam ab95502) (human) (UniProt Q16595); assay: Simoa sandwich 3-step; capture Ab-1; frataxin 100 pg/mL
[17] = target: Recombinant, his tagged full length human frataxin protein (Abcam ab95502) (human) (UniProt Q16595); assay: Simoa sandwich 3-step; capture Ab-4
[18] = target: Recombinant, his tagged full length human frataxin protein (Abcam ab95502) (human) (UniProt Q16595); assay: Simoa sandwich 3-step; capture Ab-1
[19] = target: Recombinant, his tagged full length human frataxin protein (Abcam ab95502) (human) (UniProt Q16595); assay: Simoa sandwich 2-step; capture Ab-1; frataxin 100 pg/mL
[20] = target: Recombinant, his tagged full length human frataxin protein (Abcam ab95502) (human) (UniProt Q16595); assay: Simoa sandwich 3-step; capture Ab-1; frataxin 1000 pg/mL; remark: listed apart in the source
[21] = target: Recombinant, his tagged full length human frataxin protein (Abcam ab95502) (human) (UniProt Q16595); assay: Simoa sandwich 2-step; capture Ab-2; frataxin 100 pg/mL
[22] = target: Recombinant, his tagged full length human frataxin protein (Abcam ab95502) (human) (UniProt Q16595); assay: Simoa sandwich 2-step; capture Ab-2; frataxin 1000 pg/mL
[23] = target: Recombinant, his tagged full length human frataxin protein (Abcam ab95502) (human) (UniProt Q16595); assay: Simoa sandwich 2-step; capture Ab-1; frataxin 10000 pg/mL
[24] = target: Recombinant, his tagged full length human frataxin protein (Abcam ab95502) (human) (UniProt Q16595); assay: Simoa sandwich 2-step; capture Ab-1
[25] = target: Recombinant, his tagged full length human frataxin protein (Abcam ab95502) (human) (UniProt Q16595); assay: Simoa sandwich 3-step; capture Ab-2; frataxin 100 pg/mL; remark: listed apart in the source
[26] = target: Recombinant, his tagged full length human frataxin protein (Abcam ab95502) (human) (UniProt Q16595); assay: Simoa sandwich 3-step; capture Ab-2; remark: listed apart in the source
[27] = target: Recombinant, his tagged full length human frataxin protein (Abcam ab95502) (human) (UniProt Q16595); assay: Simoa sandwich 3-step; capture Ab-1; frataxin 100 pg/mL; remark: listed apart in the source
[28] = target: Recombinant, his tagged full length human frataxin protein (Abcam ab95502) (human) (UniProt Q16595); assay: Simoa sandwich 2-step; capture Ab-2
[29] = target: Recombinant, his tagged full length human frataxin protein (Abcam ab95502) (human) (UniProt Q16595); assay: Simoa sandwich 2-step; capture Ab-1; frataxin 1000 pg/mL
[30] = target: Recombinant, his tagged full length human frataxin protein (Abcam ab95502) (human) (UniProt Q16595); assay: Simoa sandwich 3-step; capture Ab-4; frataxin 10000 pg/mL
[31] = target: Recombinant, his tagged full length human frataxin protein (Abcam ab95502) (human) (UniProt Q16595); assay: Simoa sandwich 3-step; capture Ab-3; frataxin 10000 pg/mL
[32] = target: Recombinant, his tagged full length human frataxin protein (Abcam ab95502) (human) (UniProt Q16595); assay: Simoa sandwich 3-step; capture Ab-2; frataxin 10000 pg/mL; remark: listed apart in the source
[33] = target: Recombinant, his tagged full length human frataxin protein (Abcam ab95502) (human) (UniProt Q16595); assay: Simoa sandwich 3-step; capture Ab-2; frataxin 1000 pg/mL; remark: listed apart in the source
[34] = target: Recombinant, his tagged full length human frataxin protein (Abcam ab95502) (human) (UniProt Q16595); assay: Simoa sandwich 3-step; capture Ab-1; remark: listed apart in the source
[35] = target: Recombinant, his tagged full length human frataxin protein (Abcam ab95502) (human) (UniProt Q16595); assay: Simoa sandwich 2-step; capture Ab-2; frataxin 10000 pg/mL
[36] = target: Recombinant, his tagged full length human frataxin protein (Abcam ab95502) (human) (UniProt Q16595); assay: Simoa sandwich 3-step; capture Ab-1; frataxin 10000 pg/mL; remark: listed apart in the source

Chain of UniProt Q16595 (Q16595 42-210): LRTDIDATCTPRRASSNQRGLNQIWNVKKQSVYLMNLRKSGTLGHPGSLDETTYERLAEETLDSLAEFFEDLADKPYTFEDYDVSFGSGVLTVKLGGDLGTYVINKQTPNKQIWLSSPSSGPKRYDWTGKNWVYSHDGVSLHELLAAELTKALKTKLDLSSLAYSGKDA

Q: What does the source list for “Ab-1, unconjugated mouse monoclonal to human Frataxin (LSBio LS-C760752) (antibody)”?
A: Ave AEB [1]: 0.834 AEB; S/B [1]: 9.35; Ave AEB [2]: 1.36 AEB; S/B [2]: 885; Ave AEB [3]: 28.9 AEB; S/B [3]: 324; Ave AEB [4]: 1.19 AEB; LOD [5]: 23.8 pg/mL; LOD [6]: 7.78 pg/mL; Ave AEB [7]: 8.56 AEB; S/B [7]: 95.9; LOD [8]: 4.85 pg/mL; Ave AEB [9]: 4.72 AEB; S/B [9]: 1.37; Ave AEB [10]: 1.92 AEB; S/B [10]: 2.05; Ave AEB [11]: 0.0069 AEB; S/B [11]: 4.45; Ave AEB [12]: 10.3 AEB; S/B [12]: 11; Ave AEB [13]: 12.4 AEB; S/B [13]: 3.63; Ave AEB [14]: 0.0712 AEB; S/B [14]: 46.2; Ave AEB [15]: 0.0953 AEB; Ave AEB [16]: 0.007 AEB; LOD [17]: 66 pg/mL

Q: “Ab-2, unconjugated mouse monoclonal to Human Frataxin FXN (LSBio LS-C755462) (antibody)” was tested. Which Ave AEB [1] did it give?
A: 0.961 AEB

Q: What about the S/B [1] of the same substance?
A: 9.84

Q: And the Ave AEB [2]?
A: 0.83 AEB

Q: And the S/B [2]?
A: 659

Q: And the Ave AEB [3]?
A: 29.5 AEB

Q: What about the S/B [3] of the same substance?
A: 302

Q: And the Ave AEB [4]?
A: 1.05 AEB

Q: What about the S/B [4] of the same substance?
A: 892

Q: What about the LOD [5] of the same substance?
A: 18 pg/mL

Q: And the LOD [6]?
A: 9.76 pg/mL

Q: What about the Ave AEB [7] of the same substance?
A: 9.35 AEB

Q: And the S/B [7]?
A: 95.7

Q: What about the LOD [8] of the same substance?
A: 4.43 pg/mL

Q: And the Ave AEB [9]?
A: 4.73 AEB

Q: What about the S/B [9] of the same substance?
A: 1.29

Q: What about the Ave AEB [10] of the same substance?
A: 2.42 AEB

Q: What about the S/B [10] of the same substance?
A: 2.36

Q: And the Ave AEB [11]?
A: 0.0068 AEB

Q: And the S/B [11]?
A: 5.41

Q: And the Ave AEB [12]?
A: 11.6 AEB

Q: What about the S/B [12] of the same substance?
A: 11.3

Q: And the LOD [18]?
A: 5.71 pg/mL

Q: And the Ave AEB [13]?
A: 13.6 AEB

Q: What about the S/B [13] of the same substance?
A: 3.71

Q: What about the Ave AEB [14] of the same substance?
A: 0.101 AEB

Q: And the S/B [14]?
A: 80.4

Q: And the Ave AEB [15]?
A: 0.107 AEB

Q: What about the S/B [15] of the same substance?
A: 90.8

Q: What about the Ave AEB [16] of the same substance?
A: 0.0088 AEB

Q: And the S/B [16]?
A: 7.44

Q: And the LOD [17]?
A: 89.6 pg/mL

Q: Which Ave AEB [19] does the source give for “Ab-5, rabbit polyclonal to recombinant full-length Human Frataxin (Abcam ab175402) (antibody)” here?
A: 1.61 AEB

Q: And the S/B [19]?
A: 27.6

Q: What about the Ave AEB [1] of the same substance?
A: 0.573 AEB

Q: And the S/B [1]?
A: 5.82

Q: And the Ave AEB [2]?
A: 5.41 AEB

Q: And the S/B [2]?
A: 343

Q: And the Ave AEB [20]?
A: 1.31 AEB

Q: And the S/B [20]?
A: 53.9

Q: And the Ave AEB [3]?
A: 21.7 AEB

Q: And the S/B [3]?
A: 220

Q: What about the Ave AEB [21] of the same substance?
A: 1.49 AEB

Q: What about the S/B [21] of the same substance?
A: 26.1

Q: And the Ave AEB [22]?
A: 13.1 AEB

Q: What about the S/B [22] of the same substance?
A: 228

Q: What about the Ave AEB [4] of the same substance?
A: 5.93 AEB

Q: And the S/B [4]?
A: 602

Q: What about the Ave AEB [23] of the same substance?
A: 29.3 AEB

Q: What about the S/B [23] of the same substance?
A: 502

Q: And the LOD [24]?
A: 1.27 pg/mL

Q: What about the Ave AEB [25] of the same substance?
A: 0.16 AEB

Q: And the S/B [25]?
A: 7.69

Q: What about the LOD [26] of the same substance?
A: 4.9 pg/mL

Q: And the Ave AEB [27]?
A: 0.152 AEB

Q: And the S/B [27]?
A: 6.28

Q: What about the LOD [5] of the same substance?
A: 33.6 pg/mL

Q: And the LOD [28]?
A: 1.88 pg/mL

Q: What about the LOD [6] of the same substance?
A: 4.62 pg/mL

Q: And the Ave AEB [7]?
A: 5.53 AEB

Q: What about the S/B [7] of the same substance?
A: 56.2

Q: What about the LOD [8] of the same substance?
A: 7.44 pg/mL

Q: And the Ave AEB [29]?
A: 12.4 AEB

Q: And the S/B [29]?
A: 212

Q: What about the Ave AEB [9] of the same substance?
A: 0.814 AEB

Q: What about the S/B [9] of the same substance?
A: 1.51

Q: And the Ave AEB [10]?
A: 0.469 AEB

Q: And the S/B [10]?
A: 1.8

Q: What about the Ave AEB [11] of the same substance?
A: 0.115 AEB

Q: And the S/B [11]?
A: 7.3

Q: What about the Ave AEB [30] of the same substance?
A: 23.7 AEB

Q: And the S/B [30]?
A: 44.1

Q: And the Ave AEB [12]?
A: 2.64 AEB

Q: What about the S/B [12] of the same substance?
A: 10.1

Q: What about the LOD [18] of the same substance?
A: 2.95 pg/mL

Q: And the Ave AEB [13]?
A: 3.95 AEB

Q: And the S/B [13]?
A: 7.32

Q: And the Ave AEB [14]?
A: 1.03 AEB

Q: What about the S/B [14] of the same substance?
A: 65

Q: What about the Ave AEB [31] of the same substance?
A: 20.5 AEB

Q: And the S/B [31]?
A: 78.8

Q: And the Ave AEB [32]?
A: 9.03 AEB

Q: And the S/B [32]?
A: 434

Q: And the Ave AEB [33]?
A: 1.59 AEB

Q: What about the S/B [33] of the same substance?
A: 76.4

Q: And the LOD [34]?
A: 5.12 pg/mL

Q: What about the Ave AEB [15] of the same substance?
A: 0.998 AEB

Q: And the S/B [15]?
A: 101

Q: And the Ave AEB [16]?
A: 0.106 AEB

Q: And the S/B [16]?
A: 10.8

Q: What about the Ave AEB [35] of the same substance?
A: 28.4 AEB

Q: And the S/B [35]?
A: 497

Q: And the LOD [17]?
A: 52.8 pg/mL

Q: And the Ave AEB [36]?
A: 8.37 AEB

Q: What about the S/B [36] of the same substance?
A: 346

Source: patent US20220308072A1
